Experimental data published in US20250313627A1 (FUSE BIOTHERAPEUTICS, published 2025).

Legend:
[1] = target: T1, recombinant His tagged human ROR1 (human, UniProt Q01973 30-403, limits assumed); assay: BLI (Octet), FUSE protein loaded on the biosensor, His tagged ROR1 in solution
T1 construct: Analyte in the BLI assay; also called Human ROR1-His; recombinant ROR1
Method: (§1) As shown in FIGS. 5A-5D, the binding affinities (KD) of TCEs for ROR1 were assessed. We examined the magnitude by which several TCEs and mutants thereof bind to recombinant ROR1. Kinetic binding graphs were generated via Bio-Layer Interferometry (BLI) using an Octet system. For each TCE, the biosensor tips were coated with FUSE proteins at 15 μg/ml and probed with either recombinant His tagged ROR1 at concentrations ranging from 100 pM to 10 μM. […] The binding affinity (KD), on rate (k-on) and off rate (k-dis), are summarized for ROR1 in FIG. 5D.
(§2) Antibodies were prepared in 1×PBS with 0.02% Tween-20 with the final concentration of 15 ug/ml. Human ROR1-His or CD3e-His protein were also prepared, and serial diluted (4-fold dilution ranging from 400 nM to 0.098 nM) in 1×PBS with 0.02% Tween-20. The biosensors were pre-moistened in 200 uL of 1×PBS with 0.02% Tween-20 for 10 minutes. Meanwhile, Octet BLI system (ForteBio) was prewarmed for 30 minutes and the flow rate was set to 1000 rpm. The biosensors (Anti-hIgG Fc Capture biosensor) were soaked in 250 uL of 1×PBS with 0.02% Tween-20 for 60 seconds at 30° C. to get an initial baseline reading. After the 60-second baseline reading, the biosensors were exposed to testing antibody for 300 seconds at 30° C. for the association between antibody and the biosensors (coupling antibody with biosensor). The biosensors with antibody were then exposed to human ROR1 or CD3e in 250 uL of 1×PBS with 0.02% Tween-20 at 30° C. for 300 seconds for the association reaction between antibody and human ROR1 or CD3e (association curve). After 300-second association reaction between antibody and antigen, the biosensors with antibody and antigen were then exposed to 250 uL of 1×PBS with 0.02% Tween-20 at 30° C. for 300 seconds for the dissociation reaction between antibody and […]. The binding affinity was calculated by the built-in data fitting algorithm.

[2] = target: T1, recombinant His tagged human ROR1; assay: BLI (Octet), FUSE protein loaded on the biosensor, His tagged ROR1 in solution; column 'kdis(1/s)'
Method: as §1, §2

[3] = target: T2, human ROR1 (Receptor Tyrosine Kinase-Like Orphan Receptor 1) on the cell surface (human, UniProt Q01973 30-937); assay: flow cytometry on MDA-MB-231 ROR1 low cells (about 17,000 ROR1 per cell), secondary antibody to the IgG1 Fc
T2 construct: whole, on cells; engineered into B16-F10 (high density) and LS174T (low density) cells; also called B16-F10-ROR1-H; LS174T-ROR1-L
T2 sequence (Q01973 30-937): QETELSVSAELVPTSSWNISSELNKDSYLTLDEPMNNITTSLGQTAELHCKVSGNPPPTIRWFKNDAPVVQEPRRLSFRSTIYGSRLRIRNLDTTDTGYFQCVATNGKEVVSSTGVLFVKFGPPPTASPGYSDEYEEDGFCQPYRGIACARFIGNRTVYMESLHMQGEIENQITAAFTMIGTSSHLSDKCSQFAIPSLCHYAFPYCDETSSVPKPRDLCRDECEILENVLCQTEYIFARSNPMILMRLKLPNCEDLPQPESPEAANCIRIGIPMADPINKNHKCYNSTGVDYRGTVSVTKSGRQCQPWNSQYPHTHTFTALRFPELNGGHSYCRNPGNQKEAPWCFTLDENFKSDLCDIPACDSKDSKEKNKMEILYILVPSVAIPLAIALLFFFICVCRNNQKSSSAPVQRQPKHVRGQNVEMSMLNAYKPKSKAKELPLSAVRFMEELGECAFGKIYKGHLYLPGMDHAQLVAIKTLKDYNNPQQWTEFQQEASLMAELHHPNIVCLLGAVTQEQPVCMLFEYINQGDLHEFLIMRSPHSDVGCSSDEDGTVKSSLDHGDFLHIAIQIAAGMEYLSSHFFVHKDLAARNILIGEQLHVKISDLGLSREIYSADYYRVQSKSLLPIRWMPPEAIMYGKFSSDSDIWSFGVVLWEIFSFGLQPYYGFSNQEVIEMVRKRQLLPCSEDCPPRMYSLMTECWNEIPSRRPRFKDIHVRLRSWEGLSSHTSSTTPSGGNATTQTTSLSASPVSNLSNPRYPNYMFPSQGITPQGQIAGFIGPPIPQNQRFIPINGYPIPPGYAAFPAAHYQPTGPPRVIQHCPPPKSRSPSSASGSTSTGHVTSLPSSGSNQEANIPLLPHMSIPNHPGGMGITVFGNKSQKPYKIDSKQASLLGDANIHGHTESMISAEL
Method: (§3) Binding of 2A11 (black line), 5A1 (dark grey line) and VHH8 (medium grey line) were tested in TCE format 12A. The commercial ROR1 specific Ab reported to bind the ROR1-Ig domain 2A2 (light grey line), served as the positive control and anti-HEL (dotted black line) served as the negative control. To better visualize binding of each test article to the three cells lines, we plotted MFI on the y-axis for each test article for HEK-293 cells (negative control; FIG. 4I), HEK-293 cells transfected with full length human ROR1 (FIG. 4J) and HEK-293 cells transfected with the ROR1 Ig domain linked to the cell surface via the GPI linker from CD59 (FIG. 4K).
(§4) Adherent target cells were collected by brief TrypLE treatment while suspension cells were directly collected. Collected cells were washed once with PBS by centrifugation at 500×g for 5 minutes at room temperature and added to V-bottom 96-well plate (200,000-300,000 cells per well). To prepared Live/Dead fixable red, one vial of powder was dissolved into 50 uL of DMSO to make stock solution and then diluted 1 uL of stock Live/Dead fixable red in 1 mL of PBS to prepare the working solution. 100 uL of Live/Dead fixable red working buffer was then added to the cell in the V-bottom 96-well plate (200,000-300,000 cells per well) and incubated for 15 minutes at room temperature. After the 15-minute incubation, the cells were washed twice with PBS by centrifugation at 500 g for 5 minutes at room temperature. The cells were then cultured with antibodies at different concentrations in 100 uL of Biolegend staining buffer at 4° C. for 45 minutes. After the 45-minute incubation with primary antibody, the cells were washed with PBS by centrifugation at 500 g for 5 minutes at room temperature. The cells were then cultured with PE-Cy7-conjugated mouse-anti-human IgG secondary antibody in Biolegend staining buffer at 4° C. for 45 minutes. […] The samples were then analyzed on Cytek flow cytometer.

[4] = target: T2, human ROR1 (Receptor Tyrosine …); assay: flow cytometry on MDA-MB-231 ROR1 high cells (about 500,000 ROR1 per cell), secondary antibody to the IgG1 Fc
Method: as §3, §4

[5] = target: T2, human ROR1 (Receptor Tyrosine …); assay: flow cytometry on MDA-MB-231 ROR1 normal cells (about 35,000 ROR1 per cell), secondary antibody to the IgG1 Fc
Method: as §3, §4

[6] = target: T2, human ROR1 (Receptor Tyrosine …); assay: flow cytometry on MDA-MB-231 ROR1 super high cells (about 2,000,000 ROR1 per cell), secondary antibody to the IgG1 Fc
Method: as §3, §4

T1 sequence (Q01973 30-403 limits assumed): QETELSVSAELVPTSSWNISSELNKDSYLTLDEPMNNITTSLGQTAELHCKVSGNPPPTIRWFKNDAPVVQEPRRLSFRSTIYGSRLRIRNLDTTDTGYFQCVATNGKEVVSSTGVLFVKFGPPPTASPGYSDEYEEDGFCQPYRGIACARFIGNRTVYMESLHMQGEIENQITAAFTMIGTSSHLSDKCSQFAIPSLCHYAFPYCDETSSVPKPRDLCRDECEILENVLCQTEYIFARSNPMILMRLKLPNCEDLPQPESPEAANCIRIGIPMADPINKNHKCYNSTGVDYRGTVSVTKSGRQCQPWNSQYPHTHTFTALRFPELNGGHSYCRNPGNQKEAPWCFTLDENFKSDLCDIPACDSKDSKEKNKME

B1: FUSE-211 (bispecific antibody, human IgG1, lambda, L234A L235A)
chain: QVQLQESGGGSVPAGGSLRLSCAASGSTYSANCMGWFRQAPGKEREEVASMSIRSGRTYYSDSVKGRFTISQDGSKNTLYLQLNSLKAEDTALYYCAAAYGGSRCVYNYRGQGTQVTVSSGGGGSGGGGSGGGGSQVQLQESGGGSVPAGGSLRLSCAASGSTYSANCMGWFRQAPGKEREEVASMSIRSGRTYYSDSVKGRFTISQDGSKNTLYLQLNSLKAEDTALYYCAAAYGGSRCVYNYRGQGTQVTVSSEPKSSDKTHTCPPCPAPEAAGGPSVFLFPPKPKDTLMISRTPEVTCVVVDVSHEDPEVKFNWYVDGVEVHNAKTKPREEQYNSTYRVVSVLTVLHQDWLNGKEYKCKVSNKALPAPIEKTISKAKGQPREPQVYTLPPSREEMTKNQVSLSCAVKGFYPSDIAVEWESNGQPENNYKTTPPVLDSDGSFFLVSKLTVDKSRWQQGNVFSCSVMHEALHNRFTQKSLSLSPGK
heavy: EVQLVESGGGLVQPGGSLRLSCAASGFTFSTYAMNWVRQAPGKGLEWVARIRSKYNNYATYYADSVKDRFTISRDDSKNTLYLQMNSLRAEDTAVYYCARHGNFGNSYVSWFAYWGQGTMVTVSSASTKGPSVFPLAPSSKSTSGGTAALGCLVKDYFPEPVTVSWNSGALTSGVHTFPAVLQSSGLYSLSSVVTVPSSSLGTQTYICNVNHKPSNTKVDKKVEPKSCDKTHTCPPCPAPEAAGGPSVFLFPPKPKDTLMISRTPEVTCVVVDVSHEDPEVKFNWYVDGVEVHNAKTKPREEQYNSTYRVVSVLTVLHQDWLNGKEYKCKVSNKALPAPIEKTISKAKGQPREPQVYTLPPSREEMTKNQVSLWCLVKGFYPSDIAVEWESNGQPENNYKTTPPVLDSDGSFFLYSKLTVDKSRWQQGNVFSCSVMHEALHNHYTQKSLSLSPGK
light: QAVVTQEPSLTVSPGGTVTLTCRSSTGAVTTSNYANWVQQKPGQAPRGLIGGTNKRAPGTPARFSGSLLGGKAALTLSGVQPEDEAEYYCALWYSNLWVFGGGTKLTVLGQPKAAPSVTLFPPSSEELQANKATLVCLISDFYPGAVTVAWKADSSPVKAGVETTTPSKQSNNKYAASSYLSLTPEQWKSHRSYSCQVTHEGSTVEKTVAPTECS
notes: Hole chain: 2A11-linker-2A11-Fc; knob chain: anti-CD3 Fab heavy chain-Fc; anti-CD3 light chain; also called format 11A incorporating 2A11
B1 was tested, and the Kd [1] was 17 nM, the kon [1] was 135000 M⁻¹ s⁻¹ and the koff [2] was 0.00229 s⁻¹. It also gave an EC50 [3] of 0.4 nM, an EC50 [4] of 0.55 nM and an EC50 [5] of 0.45 nM. The EC50 [6] was 0.19 nM.
